B1: HDV Ribozyme (parent)
chain: GGCCGGCAUGGUCCCAGCCUCCUCGCUGGCGCCGGCUGGGCAACAUUCCGAGGGGACCGUCCCCUCGGUAAUGGCGAAUGGGACCCA

Variants of: B1
Experiment: self-cleavage, relative activity (ratio to wild type); higher = more cleavage; co-transcriptional

Point of comparison: GGCCGGCAUGGUCCCAGCCUCCUCGCUGGCACCGGCUGGGCAACUUUCCGAGGGGACCGUCCCCUCGGUAAUGGCGAAUGGGACCCA [G31A A45U], self-cleavage 0.185. Against it:
- GGCCGGCAUGGUCCCAGCCUCCUCGCUGGUGCCGGCUGGGCAACAUUCCGAGGGGACCGUCCCCUCGGUAAUGGCGAAUGUGACCCA [C30U G81U] — lower, 0.149
- GGCCGGCAUGGUCCCAGCCUCCUCGCUGGUGCCGGCUGGGCAACAUUCCGAGGGGACCGUCCCCUCGGUAAUGGCGAAUGCGACCCA [C30U G81C] — lower, 0.148
- GGCCGGCAUGGUCCCAGCCUCCUCGCUGGUGCCGGCAGGGCAACAUUCCGAGGGGACCGUCCCCUCGGUAAUGGCGAAUGGGACCCA [C30U U37A] — higher, 0.256
- GGCCGGCAUGGUCCCAGCCUCCUCGCUGGUGCCGGCGGGGCAACAUUCCGAGGGGACCGUCCCCUCGGUAAUGGCGAAUGGGACCCA [C30U U37G] — lower, 0
- GGCCGGCAUGGUCCCAGCCUCCUCGCUGGUGCCGGCCGGGCAACAUUCCGAGGGGACCGUCCCCUCGGUAAUGGCGAAUGGGACCCA [C30U U37C] — higher, 0.906
- GGCCGGCAUGGUCCCAGCCUCCUCGCUGGCACCGGCUGGGCAAGAUUCCGAGGGGACCGUCCCCUCGGUAAUGGCGAAUGGGACCCA [G31A C44G] — lower, 0.133
- GGCCGGCAUGGUCCCAGCCUCCUCGCUGGCACCGGCUGGGCAAAAUUCCGAGGGGACCGUCCCCUCGGUAAUGGCGAAUGGGACCCA [G31A C44A] — higher, 0.192
- GGCCGGCAUGGUCCCAGCCUCCUCGCUGGUGCCGGCUGGGCAACAUUCCGAGGGGACCGUCCCCUCGGUAAUGGCGAAAGGGACCCA [C30U U79A] — higher, 0.293
- GGCCGGCAUGGUCCCAGCCUCCUCGCUGGCACCGGCUGGGCAACAUUCCGAGGGGGCCGUCCCCUCGGUAAUGGCGAAUGGGACCCA [G31A A56G] — higher, 0.369
- GGCCGGCAUGGUCCCAGCCUCCUCGCUGGCACCGGCUGGGCAGCAUUCCGAGGGGACCGUCCCCUCGGUAAUGGCGAAUGGGACCCA [G31A A43G] — lower, 0.0386
- GGCCGGCAUGGUCCCAGCCUCCUCGCUGGCACCGGCUGGGCACCAUUCCGAGGGGACCGUCCCCUCGGUAAUGGCGAAUGGGACCCA [G31A A43C] — lower, 0.106
- GGCCGGCAUGGUCCCAGCCUCCUCGCUGGCACCGGCUGGGCAACAUUCCGAGGGGACCGUCCCCUCGGUAAUGGCGAUUGGGACCCA [G31A A78U] — lower, 0.175
- GGCCGGCAUGGUCCCAGCCUCCUCGCUGGCACCGGCUGGGCAACAUUCCGAGGGGACCGUCCCCUCGGUAAUGGCGACUGGGACCCA [G31A A78C] — lower, 0.169
- GGCCGGCAUGGUCCCAGCCUCCUCGCUGGUGCCGGCUGGGCAACAGUCCGAGGGGACCGUCCCCUCGGUAAUGGCGAAUGGGACCCA [C30U U46G] — higher, 0.231
- GGCCGGCAUGGUCCCAGCCUCCUCGCUGGCACCGGCUGGGCAACAUUCCGAGGGGACCGUCCCCUCGGUAAUGGCGAAUGGGACCCA [G31A] — higher, 0.503
- GGCCGGCAUGGUCCCAGCCUCCUCGCUGGCACCGGGUGGGCAACAUUCCGAGGGGACCGUCCCCUCGGUAAUGGCGAAUGGGACCCA [G31A C36G] — higher, 0.233
- GGCCGGCAUGGUCCCAGCCUCCUCGCUGGCACCGGAUGGGCAACAUUCCGAGGGGACCGUCCCCUCGGUAAUGGCGAAUGGGACCCA [G31A C36A] — lower, 0.117
- GGCCGGCAUGGUCCCAGCCUCCUCGCUGGCACCGGCUGGGCAACAUUCCGAGGGGACUGUCCCCUCGGUAAUGGCGAAUGGGACCCA [G31A C58U] — higher, 0.399
- GGCCGGCAUGGUCCCAGCCUCCUCGCUGGCACCGGCUGGGCAACAUUCCGAGGGGACCGUCGCCUCGGUAAUGGCGAAUGGGACCCA [G31A C62G] — higher, 0.317
- GGCCGGCAUGGUCCCAGCCUCCUCGCUGGCACCGGCUGGGCAACAUUCCGAGGGGACCGUCACCUCGGUAAUGGCGAAUGGGACCCA [G31A C62A] — higher, 0.445
- GGCCGGCAUGGUCCCAGCCUCCUCGCUGGCACGGGCUGGGCAACAUUCCGAGGGGACCGUCCCCUCGGUAAUGGCGAAUGGGACCCA [G31A C33G] — lower, 0
- GGCCGGCAUGGUCCCAGCCUCCUCGCUGGCACAGGCUGGGCAACAUUCCGAGGGGACCGUCCCCUCGGUAAUGGCGAAUGGGACCCA [G31A C33A] — lower, 0.0744
- GGCCGGCAUGGUCCCAGCCUCCUCGCUGGCACUGGCUGGGCAACAUUCCGAGGGGACCGUCCCCUCGGUAAUGGCGAAUGGGACCCA [G31A C33U] — higher, 0.359
- GGCCGGCAUGGUCCCAGCCUCCUCGCUGGCACCGGCUGGGCAACAUUCCGAGGGGACCGUCCCCUCGGUAGUGGCGAAUGGGACCCA [G31A A71G] — higher, 0.432
- GGCCGGCAUGGUCCCAGCCUCCUCGCUGGCACCGGCUGGGCAACAUUCCGAGGGGACCGUCCCCUCGGUACUGGCGAAUGGGACCCA [G31A A71C] — higher, 0.251
- GGCCGGCAUGGUCCCAGCCUCCUCGCUGGCACCGGCUGGGCAACAUUCCGAGGGGACCGUCCCCUCGGUAUUGGCGAAUGGGACCCA [G31A A71U] — higher, 0.447
- GGCCGGCAUGGUCCCAGCCUCCUCGCUGGUGCCGGCUGGGCAACAUUCCGAGGGGACCGUCCCCUCGGAAAUGGCGAAUGGGACCCA [C30U U69A] — higher, 0.594
- GGCCGGCAUGGUCCCAGCCUCCUCGCUGGUGCCGGCUGGGCAACAUUCCGAGGGGACCGUCCCCUCGGCAAUGGCGAAUGGGACCCA [C30U U69C] — higher, 0.796
- GGCCGGCAUGGUCCCAGCCUCCUCGCUGGCACCGGCUGGGCAACAUUCUGAGGGGACCGUCCCCUCGGUAAUGGCGAAUGGGACCCA [G31A C49U] — higher, 0.404
- GGCCGGCAUGGUCCCAGCCUCCUCGCUGGCACCGGCUGGGAAACAUUCCGAGGGGACCGUCCCCUCGGUAAUGGCGAAUGGGACCCA [G31A C41A] — higher, 0.273
- GGCCGGCAUGGUCCCAGCCUCCUCGCUGGCACCGGCUGGGUAACAUUCCGAGGGGACCGUCCCCUCGGUAAUGGCGAAUGGGACCCA [G31A C41U] — higher, 0.269
- GGCCGGCAUGGUCCCAGCCUCCUCGCUGGCACCGGCUGGGGAACAUUCCGAGGGGACCGUCCCCUCGGUAAUGGCGAAUGGGACCCA [G31A C41G] — lower, 0.106
- GGCCGGCAUGGUCCCAGCCUCCUCGCUGGCACCGGCUGGGCAACAUUCCGAGGGGACCGUCCCCUCGGUAAUGGCGAAUGGGACCCG [G31A A87G] — higher, 0.352
- GGCCGGCAUGGUCCCAGCCUCCUCGCUGGCACCGGCUGGGCAACAUUCCGAGGGGACCGUCCCCUCGGUAAUGGCGAAUGGGACCCC [G31A A87C] — higher, 0.385
- GGCCGGCAUGGUCCCAGCCUCCUCGCUGGCACCGGCUGGGCAACCUUCCGAGGGGACCGUCCCCUCGGUAAUGGCGAAUGGGACCCA [G31A A45C] — higher, 0.262
- GGCCGGCAUGGUCCCAGCCUCCUCGCUGGCACCGGCUGGGCAACAUUCCGGGGGGACCGUCCCCUCGGUAAUGGCGAAUGGGACCCA [G31A A51G] — higher, 0.554
- GGCCGGCAUGGUCCCAGCCUCCUCGCUGGCACCGGCUGGGCAACAUUCCGUGGGGACCGUCCCCUCGGUAAUGGCGAAUGGGACCCA [G31A A51U] — higher, 0.283
- GGCCGGCAUGGUCCCAGCCUCCUCGCUGGCACCGGCUGGGCAACAUUCCGCGGGGACCGUCCCCUCGGUAAUGGCGAAUGGGACCCA [G31A A51C] — higher, 0.396
- GGCCGGCAUGGUCCCAGCCUCCUCGCUGGCAGCGGCUGGGCAACAUUCCGAGGGGACCGUCCCCUCGGUAAUGGCGAAUGGGACCCA [G31A C32G] — higher, 0.198
- GGCCGGCAUGGUCCCAGCCUCCUCGCUGGCAACGGCUGGGCAACAUUCCGAGGGGACCGUCCCCUCGGUAAUGGCGAAUGGGACCCA [G31A C32A] — lower, 0.0941
- GGCCGGCAUGGUCCCAGCCUCCUCGCUGGCACCGGCUGGGCAACAUUACGAGGGGACCGUCCCCUCGGUAAUGGCGAAUGGGACCCA [G31A C48A] — higher, 0.616
- GGCCGGCAUGGUCCCAGCCUCCUCGCUGGUGCCGGCUGGGCAACAUUCCGAGGGGACCGUCCCCUCGGUAACGGCGAAUGGGACCCA [C30U U72C] — lower, 0.0959
- GGCCGGCAUGGUCCCAGCCUCCUCGCUGGUGCCGGCUGGGCAACAUUCCGAGGGGACCGUCCCCUCGGUAAGGGCGAAUGGGACCCA [C30U U72G] — lower, 0.128
- GGCCGGCAUGGUCCCAGCCUCCUCGCUGGUGCCGGCUGGGCAACAUUCCGAGGGGACCGUCCCCUCGGUAAAGGCGAAUGGGACCCA [C30U U72A] — higher, 0.277
- GGCCGGCAUGGUCCCAGCCUCCUCGCUGGUGCCGGCUGGGCAACAUUCCGAGGGGACCGUCCCCACGGUAAUGGCGAAUGGGACCCA [C30U U65A] — higher, 0.689
- GGCCGGCAUGGUCCCAGCCUCCUCGCUGGUGCCGGCUGGGCAACAUUCCGAGGGGACCGUCCCCGCGGUAAUGGCGAAUGGGACCCA [C30U U65G] — higher, 0.506
- GGCCGGCAUGGUCCCAGCCUCCUCGCUGGUGCCGGCUGGGCAACAUUCCGAGGGGACCGUCCCCCCGGUAAUGGCGAAUGGGACCCA [C30U U65C] — higher, 0.78
- GGCCGGCAUGGUCCCAGCCUCCUCGCUGGUGCCGGCUGGGCAACAUUCCGAGGGGACCGUCCCCUCGGUAAUAGCGAAUGGGACCCA [C30U G73A] — higher, 0.277
- GGCCGGCAUGGUCCCAGCCUCCUCGCUGGUGCCGGCUGGGCAACAUUCCGAGGGGACCGUCCCCUCGGUAAUCGCGAAUGGGACCCA [C30U G73C] — lower, 0.136
- GGCCGGCAUGGUCCCAGCCUCCUCGCUGGUGCCGGCUGGGCAACAUUCCGAGGGGACCGUCCCCUCGGUAAUGGCCAAUGGGACCCA [C30U G76C] — higher, 0.683
- GGCCGGCAUGGUCCCAGCCUCCUCGCUGGUGCCGGCUGGGCAACAUUCCGAGGGGACCGUCCCCUCGGUAAUGGCUAAUGGGACCCA [C30U G76U] — higher, 0.805
- GGCCGGCAUGGUCCCAGCCUCCUCGCUGGCACCGGCUGGGCAACAUUCCGAGGGGACCGUCCCCUCGGUUAUGGCGAAUGGGACCCA [G31A A70U] — lower, 0.101
- GGCCGGCAUGGUCCCAGCCUCCUCGCUGGCACCGGCUGGGCAACAUUCCGAGGGGACCGUCCCCUCGGUCAUGGCGAAUGGGACCCA [G31A A70C] — higher, 0.407
- GGCCGGCAUGGUCCCAGCCUCCUCGCUGGUGCCGGCUGGGCAACAUUCCGAGGGGACCGACCCCUCGGUAAUGGCGAAUGGGACCCA [C30U U60A] — higher, 0.69
- GGCCGGCAUGGUCCCAGCCUCCUCGCUGGUGCCGGCUGGGCAACAUUCCGAGGGGACCGCCCCCUCGGUAAUGGCGAAUGGGACCCA [C30U U60C] — higher, 0.831
- GGCCGGCAUGGUCCCAGCCUCCUCGCUGGUGCCGGCUGGGCAACAUGCCGAGGGGACCGUCCCCUCGGUAAUGGCGAAUGGGACCCA [C30U U47G] — higher, 0.571
- GGCCGGCAUGGUCCCAGCCUCCUCGCUGGUGCCGGCUGGGCAACAUACCGAGGGGACCGUCCCCUCGGUAAUGGCGAAUGGGACCCA [C30U U47A] — higher, 0.532
- GGCCGGCAUGGUCCCAGCCUCCUCGCUGGCACCGGCUGGGCAACAUUCCGAGGGGAUCGUCCCCUCGGUAAUGGCGAAUGGGACCCA [G31A C57U] — higher, 0.421
- GGCCGGCAUGGUCCCAGCCUCCUCGCUGGUGCCGGCUGGGCAACAUUCCGAGGGGACCGUCCCCUCGGUAAUGACGAAUGGGACCCA [C30U G74A] — lower, 0.0329
- GGCCGGCAUGGUCCCAGCCUCCUCGCUGGUGCCGGCUGGGCAACAUUCCGAGGGGACCGUCCCCUCGGUAAUGCCGAAUGGGACCCA [C30U G74C] — lower, 0.113
- GGCCGGCAUGGUCCCAGCCUCCUCGCUGGCACCGGCUGGGCAACAUUCCGAGGGGACCGUUCCCUCGGUAAUGGCGAAUGGGACCCA [G31A C61U] — higher, 0.442
- GGCCGGCAUGGUCCCAGCCUCCUCGCUGGUGCCGGCUGGGCAACAUUCCGAGGGGACCGUCCCCUCGGUAAUGGCGAAUGGUACCCA [C30U G82U] — higher, 0.252
- GGCCGGCAUGGUCCCAGCCUCCUCGCUGGUGCCGGCUGGGCAACAUUCCGAGGGGACCGUCCCCUCGGUAAUGGCGAAUGGCACCCA [C30U G82C] — lower, 0.102
